Here are results for 7 molecules from patent US20130336893A1 (Sanofi, published 2013).

*1 amine or outer side, *2 acyl side, *3 side chain or, on linkers, in order; H or OH if unused. Where no end group is shown, it is not given here. Side-chain parts run from the residue outwards. [ ]: non-standard residue; d: D form. The star is where a group is joined. γGlu = O=C(O)[C@H](CCC(=O)[*:2])N[*:1]; Palmitoyl = CCCCCCCCCCCCCCCC(=O)*; Aib = CC(C)(N)C(=O)O; GABA = NCCCC(=O)O

In one assay the target is human GLP-1 receptor (human, UniProt P43220 24-463). As to the kind of experiment: cell-based or functional assay.
In another assay the target is human glucagon receptor (human, UniProt P47871 26-477). As to the kind of experiment: cell-based or functional assay.
Sequence of human glucagon receptor (P47871 26-477): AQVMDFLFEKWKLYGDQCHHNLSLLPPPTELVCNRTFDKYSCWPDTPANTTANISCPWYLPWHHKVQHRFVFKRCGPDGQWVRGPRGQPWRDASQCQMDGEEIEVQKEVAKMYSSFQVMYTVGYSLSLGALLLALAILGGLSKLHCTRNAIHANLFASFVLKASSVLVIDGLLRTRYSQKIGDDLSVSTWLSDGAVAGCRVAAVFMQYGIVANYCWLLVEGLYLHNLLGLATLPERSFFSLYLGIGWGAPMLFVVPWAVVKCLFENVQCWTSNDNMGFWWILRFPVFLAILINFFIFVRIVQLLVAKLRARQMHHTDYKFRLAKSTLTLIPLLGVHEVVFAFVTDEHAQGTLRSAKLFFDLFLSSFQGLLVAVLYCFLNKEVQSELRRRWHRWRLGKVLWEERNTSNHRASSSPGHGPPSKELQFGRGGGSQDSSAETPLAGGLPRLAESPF

B1: SEQ ID NO: (112) (peptide)
peptide: H[dS]QGTFTSDLSKQMES[Aib]AAQLFIEWLKAGGPSSGAPPPSK([γGlu-Palmitoyl])-NH2
modifications: N-terminus assumed
SMILES: CCCCCCCCCCCCCCCC(=O)N[C@@H](CCC(=O)NCCCC[C@H](NC(=O)[C@H](CO)NC(=O)[C@@H]1CCCN1C(=O)[C@@H]1CCCN1C(=O)[C@@H]1CCCN1C(=O)[C@H](C)NC(=O)CNC(=O)[C@H](CO)NC(=O)[C@H](CO)NC(=O)[C@@H]1CCCN1C(=O)CNC(=O)CNC(=O)[C@H](C)NC(=O)[C@H](CCCCN)NC(=O)[C@H](CC(C)C)NC(=O)[C@H](Cc1c[nH]c2ccccc12)NC(=O)[C@H](CCC(=O)O)NC(=O)[C@@H](NC(=O)[C@H](Cc1ccccc1)NC(=O)[C@H](CC(C)C)NC(=O)[C@H](CCC(N)=O)NC(=O)[C@H](C)NC(=O)[C@H](C)NC(=O)C(C)(C)NC(=O)[C@H](CO)NC(=O)[C@H](CCC(=O)O)NC(=O)[C@H](CCSC)NC(=O)[C@H](CCC(N)=O)NC(=O)[C@H](CCCCN)NC(=O)[C@H](CO)NC(=O)[C@H](CC(C)C)NC(=O)[C@H](CC(=O)O)NC(=O)[C@H](CO)NC(=O)[C@@H](NC(=O)[C@H](Cc1ccccc1)NC(=O)[C@@H](NC(=O)CNC(=O)[C@H](CCC(N)=O)NC(=O)[C@@H](CO)NC(=O)[C@@H](N)Cc1c[nH]cn1)[C@@H](C)O)[C@@H](C)O)[C@@H](C)CC)C(N)=O)C(=O)O
Consider B1, for which, in the assay with human GLP-1 receptor, the “EC50 hGLP-1R (cAMP formation)” value turned out to be 9.7 pM. Moreover, the “EC50 hGlucagonR (cAMP formation)” value with human glucagon receptor came to 876 pM.

B2: SEQ ID NO: (115) (peptide)
peptide: H[dS]QGTFTSDLSKQMEEEAA[Aib]DFIEWLKAGGPSSGAPPPSK([γGlu-Palmitoyl])-NH2
modifications: N-terminus assumed
SMILES: CCCCCCCCCCCCCCCC(=O)N[C@@H](CCC(=O)NCCCC[C@H](NC(=O)[C@H](CO)NC(=O)[C@@H]1CCCN1C(=O)[C@@H]1CCCN1C(=O)[C@@H]1CCCN1C(=O)[C@H](C)NC(=O)CNC(=O)[C@H](CO)NC(=O)[C@H](CO)NC(=O)[C@@H]1CCCN1C(=O)CNC(=O)CNC(=O)[C@H](C)NC(=O)[C@H](CCCCN)NC(=O)[C@H](CC(C)C)NC(=O)[C@H](Cc1c[nH]c2ccccc12)NC(=O)[C@H](CCC(=O)O)NC(=O)[C@@H](NC(=O)[C@H](Cc1ccccc1)NC(=O)[C@H](CC(=O)O)NC(=O)C(C)(C)NC(=O)[C@H](C)NC(=O)[C@H](C)NC(=O)[C@H](CCC(=O)O)NC(=O)[C@H](CCC(=O)O)NC(=O)[C@H](CCC(=O)O)NC(=O)[C@H](CCSC)NC(=O)[C@H](CCC(N)=O)NC(=O)[C@H](CCCCN)NC(=O)[C@H](CO)NC(=O)[C@H](CC(C)C)NC(=O)[C@H](CC(=O)O)NC(=O)[C@H](CO)NC(=O)[C@@H](NC(=O)[C@H](Cc1ccccc1)NC(=O)[C@@H](NC(=O)CNC(=O)[C@H](CCC(N)=O)NC(=O)[C@@H](CO)NC(=O)[C@@H](N)Cc1c[nH]cn1)[C@@H](C)O)[C@@H](C)O)[C@@H](C)CC)C(N)=O)C(=O)O
As for B2, the “EC50 hGLP-1R (cAMP formation)” value in the assay with human GLP-1 receptor amounted to 0.7 pM. The “EC50 hGlucagonR (cAMP formation)” value with human glucagon receptor is 175 pM.

B3: SEQ ID NO: (17) (peptide)
peptide: HSQGTFTSDLSKQMEEERAKDFIEWLKNGGPSSGAPPPS-NH2
As to B3, the “EC50 hGLP-1R (cAMP formation)” value with human GLP-1 receptor worked out at 24.1 pM. Moreover, the “EC50 hGlucagonR (cAMP formation)” value with human glucagon receptor amounted to 3360 pM.

B4: SEQ ID NO: (113) (peptide)
peptide: H[dS]QGTFTSDLSKQMEEEAAKLFIEWLKAGGPSSGAPPPSK([γGlu-Palmitoyl])-NH2
modifications: N-terminus assumed
SMILES: CCCCCCCCCCCCCCCC(=O)N[C@@H](CCC(=O)NCCCC[C@H](NC(=O)[C@H](CO)NC(=O)[C@@H]1CCCN1C(=O)[C@@H]1CCCN1C(=O)[C@@H]1CCCN1C(=O)[C@H](C)NC(=O)CNC(=O)[C@H](CO)NC(=O)[C@H](CO)NC(=O)[C@@H]1CCCN1C(=O)CNC(=O)CNC(=O)[C@H](C)NC(=O)[C@H](CCCCN)NC(=O)[C@H](CC(C)C)NC(=O)[C@H](Cc1c[nH]c2ccccc12)NC(=O)[C@H](CCC(=O)O)NC(=O)[C@@H](NC(=O)[C@H](Cc1ccccc1)NC(=O)[C@H](CC(C)C)NC(=O)[C@H](CCCCN)NC(=O)[C@H](C)NC(=O)[C@H](C)NC(=O)[C@H](CCC(=O)O)NC(=O)[C@H](CCC(=O)O)NC(=O)[C@H](CCC(=O)O)NC(=O)[C@H](CCSC)NC(=O)[C@H](CCC(N)=O)NC(=O)[C@H](CCCCN)NC(=O)[C@H](CO)NC(=O)[C@H](CC(C)C)NC(=O)[C@H](CC(=O)O)NC(=O)[C@H](CO)NC(=O)[C@@H](NC(=O)[C@H](Cc1ccccc1)NC(=O)[C@@H](NC(=O)CNC(=O)[C@H](CCC(N)=O)NC(=O)[C@@H](CO)NC(=O)[C@@H](N)Cc1c[nH]cn1)[C@@H](C)O)[C@@H](C)O)[C@@H](C)CC)C(N)=O)C(=O)O
For B4, the “EC50 hGLP-1R (cAMP formation)” value with human GLP-1 receptor turned out to be 2 pM. Also, the “EC50 hGlucagonR (cAMP formation)” value in the assay with human glucagon receptor amounted to 311 pM.

B5: SEQ ID NO: (124) (peptide)
peptide: H[dS]QGTFTSDLSKQMESRRAQDFIEWLKSGGPSSGAPPPK([GABA-Palmitoyl])-NH2
modifications: N-terminus assumed
SMILES: CCCCCCCCCCCCCCCC(=O)NCCCC(=O)NCCCC[C@H](NC(=O)[C@@H]1CCCN1C(=O)[C@@H]1CCCN1C(=O)[C@@H]1CCCN1C(=O)[C@H](C)NC(=O)CNC(=O)[C@H](CO)NC(=O)[C@H](CO)NC(=O)[C@@H]1CCCN1C(=O)CNC(=O)CNC(=O)[C@H](CO)NC(=O)[C@H](CCCCN)NC(=O)[C@H](CC(C)C)NC(=O)[C@H](Cc1c[nH]c2ccccc12)NC(=O)[C@H](CCC(=O)O)NC(=O)[C@@H](NC(=O)[C@H](Cc1ccccc1)NC(=O)[C@H](CC(=O)O)NC(=O)[C@H](CCC(N)=O)NC(=O)[C@H](C)NC(=O)[C@H](CCCNC(=N)N)NC(=O)[C@H](CCCNC(=N)N)NC(=O)[C@H](CO)NC(=O)[C@H](CCC(=O)O)NC(=O)[C@H](CCSC)NC(=O)[C@H](CCC(N)=O)NC(=O)[C@H](CCCCN)NC(=O)[C@H](CO)NC(=O)[C@H](CC(C)C)NC(=O)[C@H](CC(=O)O)NC(=O)[C@H](CO)NC(=O)[C@@H](NC(=O)[C@H](Cc1ccccc1)NC(=O)[C@@H](NC(=O)CNC(=O)[C@H](CCC(N)=O)NC(=O)[C@@H](CO)NC(=O)[C@@H](N)Cc1c[nH]cn1)[C@@H](C)O)[C@@H](C)O)[C@@H](C)CC)C(N)=O
On to B5, for which the “EC50 hGLP-1R (cAMP formation)” value with human GLP-1 receptor came to 13.9 pM. The “EC50 hGlucagonR (cAMP formation)” value with human glucagon receptor came out at 21.3 pM.

B6: SEQ ID NO: (111) (peptide)
peptide: H[dS]QGTFTSDLSKQMES[Aib]AAQDFIEWLKAGGPSSGAPPPSK([γGlu-Palmitoyl])-NH2
modifications: N-terminus assumed
SMILES: CCCCCCCCCCCCCCCC(=O)N[C@@H](CCC(=O)NCCCC[C@H](NC(=O)[C@H](CO)NC(=O)[C@@H]1CCCN1C(=O)[C@@H]1CCCN1C(=O)[C@@H]1CCCN1C(=O)[C@H](C)NC(=O)CNC(=O)[C@H](CO)NC(=O)[C@H](CO)NC(=O)[C@@H]1CCCN1C(=O)CNC(=O)CNC(=O)[C@H](C)NC(=O)[C@H](CCCCN)NC(=O)[C@H](CC(C)C)NC(=O)[C@H](Cc1c[nH]c2ccccc12)NC(=O)[C@H](CCC(=O)O)NC(=O)[C@@H](NC(=O)[C@H](Cc1ccccc1)NC(=O)[C@H](CC(=O)O)NC(=O)[C@H](CCC(N)=O)NC(=O)[C@H](C)NC(=O)[C@H](C)NC(=O)C(C)(C)NC(=O)[C@H](CO)NC(=O)[C@H](CCC(=O)O)NC(=O)[C@H](CCSC)NC(=O)[C@H](CCC(N)=O)NC(=O)[C@H](CCCCN)NC(=O)[C@H](CO)NC(=O)[C@H](CC(C)C)NC(=O)[C@H](CC(=O)O)NC(=O)[C@H](CO)NC(=O)[C@@H](NC(=O)[C@H](Cc1ccccc1)NC(=O)[C@@H](NC(=O)CNC(=O)[C@H](CCC(N)=O)NC(=O)[C@@H](CO)NC(=O)[C@@H](N)Cc1c[nH]cn1)[C@@H](C)O)[C@@H](C)O)[C@@H](C)CC)C(N)=O)C(=O)O
B6: the “EC50 hGLP-1R (cAMP formation)” value with human GLP-1 receptor came to 4.1 pM. For the same molecule, in the assay with human glucagon receptor, the “EC50 hGlucagonR (cAMP formation)” value stood at 206 pM.

B7: SEQ ID NO: (114) (peptide)
peptide: H[dS]QGTFTSDLSKQMESEAAQLFIEWLKAGGPSSGAPPPSK([γGlu-Palmitoyl])-NH2
modifications: N-terminus assumed
SMILES: CCCCCCCCCCCCCCCC(=O)N[C@@H](CCC(=O)NCCCC[C@H](NC(=O)[C@H](CO)NC(=O)[C@@H]1CCCN1C(=O)[C@@H]1CCCN1C(=O)[C@@H]1CCCN1C(=O)[C@H](C)NC(=O)CNC(=O)[C@H](CO)NC(=O)[C@H](CO)NC(=O)[C@@H]1CCCN1C(=O)CNC(=O)CNC(=O)[C@H](C)NC(=O)[C@H](CCCCN)NC(=O)[C@H](CC(C)C)NC(=O)[C@H](Cc1c[nH]c2ccccc12)NC(=O)[C@H](CCC(=O)O)NC(=O)[C@@H](NC(=O)[C@H](Cc1ccccc1)NC(=O)[C@H](CC(C)C)NC(=O)[C@H](CCC(N)=O)NC(=O)[C@H](C)NC(=O)[C@H](C)NC(=O)[C@H](CCC(=O)O)NC(=O)[C@H](CO)NC(=O)[C@H](CCC(=O)O)NC(=O)[C@H](CCSC)NC(=O)[C@H](CCC(N)=O)NC(=O)[C@H](CCCCN)NC(=O)[C@H](CO)NC(=O)[C@H](CC(C)C)NC(=O)[C@H](CC(=O)O)NC(=O)[C@H](CO)NC(=O)[C@@H](NC(=O)[C@H](Cc1ccccc1)NC(=O)[C@@H](NC(=O)CNC(=O)[C@H](CCC(N)=O)NC(=O)[C@@H](CO)NC(=O)[C@@H](N)Cc1c[nH]cn1)[C@@H](C)O)[C@@H](C)O)[C@@H](C)CC)C(N)=O)C(=O)O
Take B7: the “EC50 hGLP-1R (cAMP formation)” value with human GLP-1 receptor is 3.1 pM. Also, the “EC50 hGlucagonR (cAMP formation)” value in the assay with human glucagon receptor is 295 pM.
